Assay results from PMC10068899 (Cell Reports, 2023).

Legend:
[1] = biological target: human p110γ (catalytic subunit of PI3Kγ), co-expressed with mouse p84 or porcine p101 (human, UniProt P48736 1-1102); assay: SEC
[2] = biological target: porcine p110γ (for X-ray crystallography) (porcine, UniProt O02697 1-1102); assay: crystal structure
[3] = biological target: human p110γ, biGBac construct co-expressed with human p84 or human p101 (human, UniProt P48736 1-1102); assay: HDX-MS
Chain of human p110γ, biGBac construct co-expressed with human p84 or human p101 (P48736 whole entry): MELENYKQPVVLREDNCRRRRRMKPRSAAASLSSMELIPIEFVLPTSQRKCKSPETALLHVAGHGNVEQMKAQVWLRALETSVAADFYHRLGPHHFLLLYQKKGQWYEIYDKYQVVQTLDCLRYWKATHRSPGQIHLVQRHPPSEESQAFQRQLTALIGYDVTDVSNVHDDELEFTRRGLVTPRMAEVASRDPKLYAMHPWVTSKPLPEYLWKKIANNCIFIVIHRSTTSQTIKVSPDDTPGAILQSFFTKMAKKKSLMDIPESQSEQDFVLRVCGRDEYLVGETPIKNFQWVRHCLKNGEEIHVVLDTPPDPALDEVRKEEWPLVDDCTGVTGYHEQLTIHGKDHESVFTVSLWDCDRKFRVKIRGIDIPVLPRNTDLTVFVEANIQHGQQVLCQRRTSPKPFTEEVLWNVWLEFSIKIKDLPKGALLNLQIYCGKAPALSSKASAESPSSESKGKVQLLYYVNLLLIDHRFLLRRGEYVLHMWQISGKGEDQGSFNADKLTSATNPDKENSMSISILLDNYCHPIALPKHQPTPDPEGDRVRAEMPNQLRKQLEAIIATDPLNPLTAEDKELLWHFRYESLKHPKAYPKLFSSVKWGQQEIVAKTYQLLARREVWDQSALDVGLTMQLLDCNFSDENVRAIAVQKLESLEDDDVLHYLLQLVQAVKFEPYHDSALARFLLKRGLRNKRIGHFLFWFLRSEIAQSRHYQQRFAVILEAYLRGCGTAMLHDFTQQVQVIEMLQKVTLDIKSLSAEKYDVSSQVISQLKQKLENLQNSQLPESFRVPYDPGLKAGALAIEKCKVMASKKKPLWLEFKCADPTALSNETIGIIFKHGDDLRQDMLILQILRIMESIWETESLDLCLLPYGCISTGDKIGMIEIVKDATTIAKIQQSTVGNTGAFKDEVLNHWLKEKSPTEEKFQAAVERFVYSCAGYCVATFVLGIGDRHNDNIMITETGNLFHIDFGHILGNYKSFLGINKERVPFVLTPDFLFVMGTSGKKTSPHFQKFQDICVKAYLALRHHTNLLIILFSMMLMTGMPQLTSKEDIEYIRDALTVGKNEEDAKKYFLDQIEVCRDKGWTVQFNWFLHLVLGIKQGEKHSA

Chain of human p110γ (catalytic subunit of PI3Kγ), co-expressed with mouse p84 or porcine p101 (P48736 whole entry): as above
Chain of porcine p110γ (for X-ray crystallography) (O02697 whole entry): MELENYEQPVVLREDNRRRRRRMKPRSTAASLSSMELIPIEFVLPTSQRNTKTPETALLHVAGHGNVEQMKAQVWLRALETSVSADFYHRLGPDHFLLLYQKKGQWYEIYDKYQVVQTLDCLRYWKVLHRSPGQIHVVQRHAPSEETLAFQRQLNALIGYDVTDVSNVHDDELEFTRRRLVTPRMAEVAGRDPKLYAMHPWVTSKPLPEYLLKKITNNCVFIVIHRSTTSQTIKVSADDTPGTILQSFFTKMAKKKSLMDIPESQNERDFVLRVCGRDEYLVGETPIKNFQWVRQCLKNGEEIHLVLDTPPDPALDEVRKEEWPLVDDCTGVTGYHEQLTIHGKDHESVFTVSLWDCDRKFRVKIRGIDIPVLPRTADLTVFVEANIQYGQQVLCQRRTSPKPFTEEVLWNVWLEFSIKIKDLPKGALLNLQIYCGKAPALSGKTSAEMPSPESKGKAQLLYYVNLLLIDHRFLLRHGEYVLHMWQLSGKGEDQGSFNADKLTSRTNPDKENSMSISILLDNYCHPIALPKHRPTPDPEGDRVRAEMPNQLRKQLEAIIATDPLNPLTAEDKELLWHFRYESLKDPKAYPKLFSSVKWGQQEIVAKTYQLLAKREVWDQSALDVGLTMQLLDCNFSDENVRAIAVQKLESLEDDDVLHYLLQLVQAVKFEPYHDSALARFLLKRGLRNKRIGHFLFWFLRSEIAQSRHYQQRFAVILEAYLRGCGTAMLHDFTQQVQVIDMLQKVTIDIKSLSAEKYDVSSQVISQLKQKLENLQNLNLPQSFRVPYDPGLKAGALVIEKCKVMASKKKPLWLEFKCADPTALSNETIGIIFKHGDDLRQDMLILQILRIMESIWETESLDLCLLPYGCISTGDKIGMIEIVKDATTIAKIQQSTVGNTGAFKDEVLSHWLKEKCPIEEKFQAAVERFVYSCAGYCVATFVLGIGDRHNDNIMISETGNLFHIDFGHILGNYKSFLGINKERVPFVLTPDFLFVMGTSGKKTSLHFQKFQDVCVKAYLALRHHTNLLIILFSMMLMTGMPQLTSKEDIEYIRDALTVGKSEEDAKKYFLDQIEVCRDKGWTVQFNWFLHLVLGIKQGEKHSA

Binder | binding result [1] | binding result [3] | other results
mouse p84 (regulatory subunit of PI3Kγ), co-expressed with human p110γ (natural protein) MESSDVELDFQRSVQAVLRELNTPNPALQSNQGMWRWSLHKKVERNPGKSSILVRILLRELEKAESEDGRRVIIPLLLTLMSVLTKATGIPEDLYHRAYTFCTRLLTLPAPYSTVALDCAIRLKTETAVPGTLYQRTVIAEQNLISELYPYQERVFLFVDPELVSASVCSALLLEIQAAQEQQTPEACMRHVVSHALQAALGEACHTGALNRKLQASSRRVLEYYFHAVVAAIEQVASEDSPSRLGHLEKMEEIYCSLLGPATTRRHCVGDLLQDRLPSIPLPSPYITFHLWTDQEQLWKELVLFLRPRSQLRLSADLDALDLQGFRLDRDLARVSTDSGIERDLPLGSDELPDPSSSEMERAALQRKGGIKKRVWPPDFFMPGSWDGPPGLHRRTGRPSGDGELLPGVSRVHTARVLVLGDDRMLGRLAQAYYRLRKRETKKFCLTPRLSLQLYYIPVLAPQVTGQDPEASRKPELGELASFLGRVDPWYESTVNTLCPAILKLAEMPPYLDTSRTVDPFILDVITYYVRMGTQPIYFQLYKVKIFTSLSHDPTEDIFLTELKVKIQDSKSPKEGSSPRRRGAAEGTGAELSMCYQKALLSHRPREVTVSLRATGLVLKAIPAGDTEVSGFFHCTSPNAASATDCSCLHVSVTEVVKSSNLAGRSFTTSTNTFRTSSIQVQSQDQRLLTLWLDKDGRRTFRDVVRFEVSPCPEPCSRTQKSKTSALNSHGQETEKNMAKPNSLLMPINTFSGIIQ | binds |  | 
EE-tagged mouse p84 (for X-ray crystallography) (natural protein) MESSDVELDFQRSVQAVLRELNTPNPALQSNQGMWRWSLHKKVERNPGKSSILVRILLRELEKAESEDGRRVIIPLLLTLMSVLTKATGIPEDLYHRAYTFCTRLLTLPAPYSTVALDCAIRLKTETAVPGTLYQRTVIAEQNLISELYPYQERVFLFVDPELVSASVCSALLLEIQAAQEQQTPEACMRHVVSHALQAALGEACHTGALNRKLQASSRRVLEYYFHAVVAAIEQVASEDSPSRLGHLEKMEEIYCSLLGPATTRRHCVGDLLQDRLPSIPLPSPYITFHLWTDQEQLWKELVLFLRPRSQLRLSADLDALDLQGFRLDRDLARVSTDSGIERDLPLGSDELPDPSSSEMERAALQRKGGIKKRVWPPDFFMPGSWDGPPGLHRRTGRPSGDGELLPGVSRVHTARVLVLGDDRMLGRLAQAYYRLRKRETKKFCLTPRLSLQLYYIPVLAPQVTGQDPEASRKPELGELASFLGRVDPWYESTVNTLCPAILKLAEMPPYLDTSRTVDPFILDVITYYVRMGTQPIYFQLYKVKIFTSLSHDPTEDIFLTELKVKIQDSKSPKEGSSPRRRGAAEGTGAELSMCYQKALLSHRPREVTVSLRATGLVLKAIPAGDTEVSGFFHCTSPNAASATDCSCLHVSVTEVVKSSNLAGRSFTTSTNTFRTSSIQVQSQDQRLLTLWLDKDGRRTFRDVVRFEVSPCPEPCSRTQKSKTSALNSHGQETEKNMAKPNSLLMPINTFSGIIQ |  |  | binding result [2]: binds
human p84 (regulatory subunit of PI3Kγ), co-expressed with human p110γ (natural protein) MESSDVELDLQRSVQAVLRELSTQAPALQSNQGMWRWSLHKKVERDPGKSPVLVRILLRELEKAESQDLRHVIIPLLHTVMYVLTKATGITEELYQRIYAFCTRLLTLPTPYCTVALDCAIRLKTEMAVPGTLYQRMVIAEQNLTNELYPYQERVFLFVDPELVSASVCSALLLEIEAAQAQQTPETCMRHVVSHALQAALGEACHAGALHRKLQASPRRTLEHYFHAVVAALEQMASEASPSREGHVERLEEIYCSLLGPAAGRCGGDLVQERPPSIPLPSPYITFHLWTGEEQLWKELVLFLRPRSQLRLSADLEVLDLQGLRPDRELARVSVLSTDSGIERDLPTGADELPAPGSPEMERAGLQRKGGIKKRAWPLDFLMPGSWDGPPGLHRRTGRPSGDGEMLPGVSRLHTARVLVLGDDRMLGRLAQAYHRLRKRETQKFCLTPRLSLQLYYIPVLAPEKPAASRQPELGELATFLGRVDPWYQSNVNTLCPAIHKLAEMPPSLDTSRTVDPFILDVITYYIRMGTQPIYFQIYTVKIFFSDLSQDPTEDIFLIELKVKIQDSKFPKDGFSPRRRGVAEGPGAELSLCYQKALLSHRPREVTVSLRATGLILKAIPASDTEVSGSSHCPLPAAPVTDHTCLNVNVTEVVKSSNLAGKSFSTVTNTFRTNNIQIQSRDQRLLTLSLDKDDQRTFRDVVRFEVAPCPEPCSGAQKSKAPWLNLHGQQEVEAIKAKPKPLLMPINTFSGIVQ |  | binds | 
porcine p101 (regulatory subunit of PI3Kγ), co-expressed with human p110γ (natural protein) MQPGATTCTEDRIQHALERCLHGLSLSRRSTSWSAGLCLNCWSLQELVSRDPGHFLILLEQILQKTREVQEKGTYDLLAPLALLFYSTVLCTPHFPPDSDLLLKAARTYHRFLTWPVPYCSICQELLTFIDAELKAPGISYQRLVRAEQGLSTRSHRSSTVTVLLLNPVEVQAEFLDVADKLSTPGPSPHSAYITLLLHAFQATFGAHCDLSGLHRRLQSKTLAELEAIFTETAEAQELASGIGDAAEARQWLRTKLQAVGEKAGFPGVLDTAKPGKLRTIPIPVARCYTYSWNQDSFDILQEILLKEQELLQPEILDDEEDEDEEDEEEDLDADGHCAERDSVLSTGSAASHASTLSLASSQASGPTLSRQLLTSFVSGLSDGVDSGYMEDIEESAYERPRRPGGHERRGHRRPGQKFNRIYKLFKSTSQMVLRRDSRSLEGSPDSGPPLRRAGSLCSPLDSPTLPPSRAQGSRSLPQPKLSPQLPGWLLAPASRHQRRRPFLSGDEDPKASTLRVVVFGSDRISGKVVRAYSNLRRLENNRPLLTRFFKLQFFYVPVKRSRGTGTPTSPAPRSQTPPLPTDAPRHPGPAELGAAPWEESTNDISHYLGMLDPWYERNVLGLMHLPPEVLCQSLKAEPRPLEGSPAQLPILADMLLYYCRFAARPVLLQVYQTELTFITGEKTTEIFIHSLELGHSAATRAIKASGPGSKRLGIDGDREAVPLTLQIIYSKGAISGRSRWSNMEKLCTSVNLSKACRQQEELDSSTEALTLNLTEVVKRQTPKSKKGFNQISTSQIKVDKVQIIGSNSCPFAVCLDQDERKILQSVIRCEVSPCYKPEKSSLCPPPQRPSYPPAPATPDLCSLLCLPIMTFSGALP | binds |  | 
human p101 (regulatory subunit of PI3Kγ), co-expressed with human p110γ (natural protein) MQPGATTCTEDRIQHALERCLHGLSLSRRSTSWSAGLCLNCWSLQELVSRDPGHFLILLEQILQKTREVQEKGTYDLLTPLALLFYSTVLCTPHFPPDSDLLLKAASTYHRFLTWPVPYCSICQELLTFIDAELKAPGISYQRLVRAEQGLPIRSHRSSTVTVLLLNPVEVQAEFLAVANKLSTPGHSPHSAYTTLLLHAFQATFGAHCDVPGLHCRLQAKTLAELEDIFTETAEAQELASGIGDAAEARRWLRTKLQAVGEKAGFPGVLDTAKPGKLHTIPIPVARCYTYSWSQDSFDILQEILLKEQELLQPGILGDDEEEEEEEEEVEEDLETDGHCAERDSLLSTSSLASHDSTLSLASSQASGPALSRHLLTSFVSGLSDGMDSGYVEDSEESSSEWPWRRGSQERRGHRRPGQKFIRIYKLFKSTSQLVLRRDSRSLEGSSDTALPLRRAGSLCSPLDEPVSPPSRAQRSRSLPQPKLGTQLPSWLLAPASRPQRRRPFLSGDEDPKASTLRVVVFGSDRISGKVARAYSNLRRLENNRPLLTRFFKLQFFYVPVKRSHGTSPGACPPPRSQTPSPPTDSPRHASPGELGTTPWEESTNDISHYLGMLDPWYERNVLGLMHLPPEVLCQQSLKAEAQALEGSPTQLPILADMLLYYCRFAARPVLLQVYQTELTFITGEKTTEIFIHSLELGHSAATRAIKASGPGSKRLGIDGDREAVPLTLQIIYSKGAISGRSRWSNLEKVCTSVNLNKACRKQEELDSSMEALTLNLTEVVKRQNSKSKKGFNQISTSQIKVDKVQIIGSNSCPFAVCLDQDERKILQSVVRCEVSPCYKPEKSDLSSPPQTPPDLPAQAAPDLCSLLCLPIMTFSGALP |  | binds | 
